These results are taken from US20120040938A1, “GLUCOCORTICOID RECEPTOR ALLELES AND USES THEREOF” (SHRINERS HOSPITAL FOR CHILDREN, priority 2009, published 2012).

The experiment has as its system GRE (glucocorticoid response element)-Luciferase reporter. Briefly: GRE-luciferase reporter assay of transactivation potential of reconstructed GR alleles co-transfected into HEK 293 cells. It counts as cell-based, human. An excerpt:
An exemplary assay for determining the transactivation potential of a GR polypeptide is described below. The GR nucleic acid sequence encoding the GR polypeptide of interest can be cloned into a first vector (e.g., pcDNA4, Invitrogen, Carlsbad, Calif.). A second vector can be constructed to contain a reporter gene, e.g., the luciferase gene, under the control of a GRE. These two vectors can be co-transfected into a cell, e.g., a human embryonic kidney cell (HEK 293). Skilled practitioners will recognize that a number of cell types can be used to test whether a GR polypeptide is functional. The cell will then express the GR polypeptide encoded by the GR nucleic acid sequence on the first vector. […] The product of the reporter gene, e.g., luciferase, can then be detected and quantified using conventional methods. For example, when a luciferin substrate is added, luciferase will produce luminescence that can be detected and quantified. […]
The reconstructed GR allele expression plasmids described above were co-transfected with a GRE (glucocorticoid response element)-Luciferase reporter plasmid (Stratagene) using Fugene HD/6 (Roche) into HEK (human embryonic kidney) 293 cells, grown in Dulbecco's Modified Eagle Medium with 10% fetal bovine serum and 1% Penicillin/Streptomycin (Invitrogen.). […] The differences in luminescence were graphed and analyzed.

Residue numbers refer to the chain shown, from its start. Names and notes keep the numbering of the source.

B1: allele 66-63: Full-length human GR with substitutions N72D, V321A, R460K, F749G (protein, UniProt P04150 1-777, looked up, variant N72D V321A R460K F749G)
Glucocorticoid receptor: MDSKESLTPGREENPSSVLAQERGDVMDFYKTLRGGATVKVSASSPSLAVASQSDSKQRRLLVDFPKGSVSDAQQPDLSKAVSLSMGLYMGETETKVMGNDLGFPQQGQISLSSGETDLKLLEESIANLNRSTSVPENPKSSASTAVSAAPTEKEFPKTHSDVSSEQQHLKGQTGTNGGNVKLYTTDQSTFDILQDLEFSSGSPGKETNESPWRSDLLIDENCLLSPLAGEDDSFLLEGNSNEDCKPLILPDTKPKIKDNGDLVLSSPSNVTLPQVKTEKEDFIELCTPGVIKQEKLGTVYCQASFPGANIIGNKMSAISAHGVSTSGGQMYHYDMNTASLSQQQDQKPIFNVIPPIPVGSENWNRCQGSGDDNLTSLGTLNFPGRTVFSNGYSSPSMRPDVSSPPSSSSTATTGPPPKLCLVCSDEASGCHYGVLTCGSCKVFFKRAVEGQHNYLCAGKNDCIIDKIRRKNCPACRYRKCLQAGMNLEARKTKKKIKGIQQATTGVSQETSENPGNKTIVPATLPQLTPTLVSLLEVIEPEVLYAGYDSSVPDSTWRIMTTLNMLGGRQVIAAVKWAKAIPGFRNLHLDDQMTLLQYSWMFLMAFALGWRSYRQSSANLLCFAPDLIINEQRMTLPCMYDQCKHMLYVSSELHRLQVSYEEYLCMKTLLLLSSVPKDGLKSQELFDEIRMTYIKELGKAIVKREGNSSQNWQRFYQLTKLLDSMHEVVENLLNYCFQTFLDKTMSIEGPEMLAEIITNQIPKYSNGNIKKLLFHQK
Turning to B1, the “luciferase activity (transactivation potential), in words” value (FIG. 5) is recorded as “very low level”.

B2: allele 66-62: Full-length human GR with substitutions N72D, V321A, N766S (protein, UniProt P04150 1-777, looked up, variant N72D V321A N766S)
Glucocorticoid receptor: B1 Glucocorticoid receptor with K460R, G749F, N766S
For B2, the “fold change in luciferase activity relative to the luciferase activity induced by the reference human GR polypeptide” value (medium with 10% fetal bovine serum, FIG. 5, experiment repeated six times) was determined as 5.5 fold.
